In article PMC7913596, “Tribbles Pseudokinase 2 (TRIB2) Regulates Expression of Binding Partners in Bovine Granulosa Cells” (International Journal of Molecular Sciences, 2021):
Blank lines part the entries; values can stand above or below the molecule they belong to.

Tests used:
[1] = molecular target: pAcGFP1-53 (positive control bait) (UniProt P02340); assay: co-IP; Matchmaker Co-IP system in co-transfected HEK 293 cells (pAcGFP1 bait, ProLabel prey); read-out by ProLabel enzyme complementation, luminescence (RLU); fold induction 60 min after substrate against the experimental control (pAcGFP1-TRIB2 and ProLabel-empty vector)
[2] = molecular target: T1, Tribbles pseudokinase 2 (TRIB2), AcGFP1 fusion in HEK 293 cells (pAcGFP1-TRIB2) (bovine, UniProt Q5GLH2 1-343); assay: as above; conditions: partners not purified
T1 construct: bovine TRIB2 (NM_178317.3); also called TRIB2 bait plasmid; source: HEK 293, transfected, in lysate
T1 sequence (looked up): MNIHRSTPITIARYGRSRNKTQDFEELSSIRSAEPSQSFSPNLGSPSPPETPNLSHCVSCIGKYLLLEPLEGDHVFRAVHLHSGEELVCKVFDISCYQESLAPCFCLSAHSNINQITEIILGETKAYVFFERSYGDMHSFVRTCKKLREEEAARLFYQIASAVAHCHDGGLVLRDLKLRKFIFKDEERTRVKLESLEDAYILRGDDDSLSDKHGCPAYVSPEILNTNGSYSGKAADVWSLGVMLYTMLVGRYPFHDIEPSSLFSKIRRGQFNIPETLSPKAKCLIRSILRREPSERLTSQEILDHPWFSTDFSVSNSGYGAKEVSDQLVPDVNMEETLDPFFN

Sequence of pAcGFP1-53 (positive control bait) (P02340 whole entry, the tested form may be a part): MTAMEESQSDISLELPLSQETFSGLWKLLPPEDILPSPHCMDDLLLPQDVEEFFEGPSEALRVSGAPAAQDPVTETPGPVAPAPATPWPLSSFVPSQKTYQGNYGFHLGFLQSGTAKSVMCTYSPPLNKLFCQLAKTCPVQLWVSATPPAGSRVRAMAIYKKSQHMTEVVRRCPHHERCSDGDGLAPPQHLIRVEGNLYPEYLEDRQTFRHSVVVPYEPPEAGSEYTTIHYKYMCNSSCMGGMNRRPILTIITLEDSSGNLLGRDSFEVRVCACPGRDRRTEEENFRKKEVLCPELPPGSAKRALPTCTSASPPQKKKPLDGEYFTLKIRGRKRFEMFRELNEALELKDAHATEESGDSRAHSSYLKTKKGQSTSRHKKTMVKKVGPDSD

Molecule: ProLabel-T (positive control prey) (natural protein)
- fold induction of ProLabel enzymatic activity against the experimental control [1]: 4.7 fold

- fold induction of ProLabel enzymatic activity against the experimental control [2]: 2.3 fold
B1: inositol polyphosphate phosphatase-like 1 (INPPL1), ProLabel prey in HEK 293 cells (natural protein, Bos taurus, UniProt E1BBJ7 1-1264, looked up)
chain: MASACGAPGPGGAGPGAALGSPAPAWYHRDLSRAAAEELLARAGRDGSFLVRDSESVAGAFALCVLYQKHVHTYRILPDGEDFLAVQTSQGVPVRRFQTLGELISLYAQPNQGLVCALLLPVEREREPDPPDDRDASDGEDEKPPLPPRSGSTSISAPMGPSSPPAAPETPTTPAAESAPNGLSTVSHEYLKGSYGLDLEAVRGGASNLPHLTRTLATSCRRLHSEVDKVLSGLEILSKVFDQQSSPMVTRLLQQQNPPQTGEQELESLVLKLSVLKDFLSGIQKKALKALQDMSSTAPPAPLQPSTRKAKTIPVQAFEVKLDVTLGDLTKIGKSQKFTLSVDVEGGRLVLLRRQRDSQEDWTTFTHDRIRQLIKSQRVQNKLGVVFEKEKDRTQRKDFIFVSARKREAFCQLLQLMKNKHSKQDEPDMISIFIGTWNMGSVPPPKNVTSWFTSKGLGKTLDEVTVTIPHDIYVFGTQENSVGDREWLDLLRGGLKELTDLDYRPIAMQSLWNIKVAVLVKPEHENRISHVSTSSVKTGIANTLGNKGAVGVSFMFNGTSFGFVNCHLTSGNEKTARRNQNYLDILRLLTLGDRQLSAFDISLRFTHLFWFGDLNYRLDMDIQEILNYISRKEFEPLLRVDQLNLEREKHKVFLRFSEEEISFPPTYRYERGSRDTYAWHKQKPTGVRTNVPSWCDRILWKSYPETHIICNSYGCTDDIVTSDHSPVFGTFEVGVTSQFISKKGLSKTSDQAYIEFESIEAIVKTASRTKFFIEFYSTCLEEYKKSFENDAQSSDNINFLKVQWSSRQLPTLNPILADIEYLQDQHLLLTVKSMDGYESYGECVVALKSMIGSTAQQFLTFLSHRGEETGNIRGSMKVRVPTERLGTRERLYEWISIDKDEAGAKSKAPSVSRGSQDPRSGSRKPASTEASCPLSKLFEEPEKPPPTGRPPAPPRAAPREEPLTPRLKPEGAPELEGVVAPPPKNSFNNPAYYVLEGVPHQLLPPEPPSPARAPVPPATKNKVAITVPAPQLGRHRPPRAGEGSSSDEDSGGTLPPPDFPPPPLPDSAIFLPPGLDPLPGPVIRGRSGGEARGPPPPKAHPRPPLPPGPSPASTFLGDVASGDDRSCSVLQMAKTLSEVDYAPAGPGRAMLLPGPLELQPPRGLPSDYGRPLSFPPPRIRESIQEDLAEEAPCPQVGRAGGLGEAGMGAWLRAIGLERYEEGLVHNGWDDLEFLSDITEEDLEEAGVQDPAHKRLLLDTLQLSK
notes: Bos taurus inositol polyphosphate phosphatase-like 1; Bands at around 50 kDa and 100 kDa after co-IP, around 160 kDa in extracts not subjected to co-IP; The insert may be the cDNA fragment found in the two-hybrid screen; also called SHIP2; SH2-containing inositol 5'-phosphatase 2; source: HEK 293, transfected, in lysate

- fold induction of ProLabel enzymatic activity against the experimental control [2]: 9.2 fold
B2: inhibin subunit beta A (INHBA), ProLabel prey in HEK 293 cells (natural protein, Bos taurus, UniProt P07995 21-425, looked up)
chain: SPTPGSEGHSAAPDCPSCALATLPKDVPNSQPEMVEAVKKHILNMLHLKKRPDVTQPVPKAALLNAIRKLHVGKVGENGYVEIEDDIGRRAEMNELMEQTSEIITFAESGTARKTLHFEISKEGSDLSVVERAEIWLFLKVPKANRTRSKVTIRLFQQQKHLQGSLDAGEEAEEVGLKGEKSEMLISEKVVDARKSTWHIFPVSSCIQRLLDQGKSSLDIRIACEQCQETGASLVLLGKKKKKEEEGEGKKRDGEGGAGGDEEKEQSHRPFLMLQARQSEDHPHRRRRRGLECDGKVNICCKKQFFVSFKDIGWNDWIIAPSGYHANYCEGECPSHIAGTSGSSLSFHSTVINHYRMRGHSPFANLKSCCVPTKLRPMSMLYYDDGQNIIKKDIQNMIVEECGCS
notes: Bos taurus inhibin subunit beta A; Seen at around 50 kDa after co-IP and at 44 kDa in extracts not subjected to co-IP; The insert may be the cDNA fragment found in the two-hybrid screen; source: HEK 293, transfected, in lysate
